According to patent US20250296971A1, “GASTRIC INHIBITORY PEPTIDE RECEPTOR LIGANDS” (priority 2021, published 2025):
*1 amine or outer side, *2 acyl side, *3 side chain or, on linkers, in order; H or OH if unused. Bridges are numbered along the chain shown (N, C = ends). Where no end group is shown, it is not given here. Side-chain parts run from the residue outwards. [ ]: non-standard residue; d: D form. The star is where a group is joined. Ttds = 1,13-diamino-4,7,10-trioxatridecan-succinamic acid, NCCCOCCOCCOCCCNC(=O)CCC(=O)*; NH(1-deoxy-D-glucityl) = OC[C@@H](O)[C@@H](O)[C@H](O)[C@@H](O)CN*; Pro(trans-4-NH2) = O=C([C@@H]1C[C@@H](N[*:3])CN1[*:1])[*:2]; DOTA = O=C(O)CN1CCN(CC(=O)O)CCN(CC(=O)*)CCN(CC(=O)O)CC1; 2Lut = 2,6-lutidylidene bridge between two thiols; Trp(5-Br) = N[C@@H](Cc1c[nH]c2ccc(Br)cc12)C(=O)O; Trp(5-Cl) = N[C@@H](Cc1c[nH]c2ccc(Cl)cc12)C(=O)O; Pyridine(2,6-diCH2) = c1cc(C[*:1])nc(C[*:2])c1; Trp(6-F) = N[C@@H](Cc1c[nH]c2cc(F)ccc12)C(=O)O; APAc = 4-amino-1-carboxymethylpiperidine; Pro(3S-OH) = O=C(O)[C@H]1NCC[C@@H]1O; mXylylene = c1cc(C[*:1])cc(C[*:2])c1; Glutaryl = O=C(CCCC(=O)[*:2])[*:1]; Hyp = O=C(O)[C@@H]1C[C@@H](O)CN1; Cysteamide = C(CS[*:3])N[*:1]; dGlu(AGLU) = not defined here; Suc = O=C(CCC(=O)[*:2])[*:1]; αMeS = C[C@](N)(CO)C(=O)O; Api = NC1(C(=O)O)CCNCC1; Thp = NC1(C(=O)O)CCOCC1; AEEA = NCCOCCOCC(=O)O; Aib = CC(C)(N)C(=O)O; Sar = CNCC(=O)O

T1: GIPR (CHO-K1-hGIPR cells) (Homo sapiens, UniProt P48546)
T1 construct: host or cells: CHO-K1
T1 sequence (P48546 22-466): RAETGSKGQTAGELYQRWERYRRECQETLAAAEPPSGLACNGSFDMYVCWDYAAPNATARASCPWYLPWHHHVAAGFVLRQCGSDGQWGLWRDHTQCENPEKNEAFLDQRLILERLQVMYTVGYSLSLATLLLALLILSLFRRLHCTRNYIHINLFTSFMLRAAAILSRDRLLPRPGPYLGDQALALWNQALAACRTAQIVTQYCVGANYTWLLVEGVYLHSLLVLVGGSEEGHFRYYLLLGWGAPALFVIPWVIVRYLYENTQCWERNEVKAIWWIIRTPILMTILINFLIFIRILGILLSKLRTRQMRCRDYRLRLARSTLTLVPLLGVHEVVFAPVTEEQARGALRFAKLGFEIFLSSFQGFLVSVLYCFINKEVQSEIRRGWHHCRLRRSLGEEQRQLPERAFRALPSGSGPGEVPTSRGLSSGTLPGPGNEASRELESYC


Tests used:
[1] = biological target: human Gastric Inhibitory Peptide Receptor (human) (UniProt P48546); experiment: FACS competition with GIP-057 on CHO-K1-hGIPR cells; pIC50 category A: >8.0
[2] = biological target: T1, GIPR (CHO-K1-hGIPR cells); experiment: FACS binding assay; conditions: competition with 20 nM GIP-057, 4° C., 1 hour, read-out: pIC50 Category (converted)
Method in brief: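 CHO-K1 cells expressing human GIPR, washed in PBS/1% FCS, then stained with 1 μg/mL APC-streptavidin for 30 min on ice.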

pIC50 [1]	IC50 [2]	Molecule
> 8 pic50	–	DOTA-APAc-Asp-Trp-5Clw-Hyp-Glu-leu-[Cys(2Lut)-Apc(AGLU-Glutar)-Leu-Ile-Cys]-APAc-glu(AGLU)-NH2 (peptide)
–	10 to 79.4 nM	CCOCCOCCOCCOCCOCCOCCOCCOCCOCCOCCOCCOCCOCCOCCOCCOCCOCCOCCOCCOCCOCCOCCOCCOCCOCCOCCOCCOCCOCCOCCOCCOCCOCCOCCOCCOCCOCC(=O)NC1CCN(CC(=O)N[C@@H](CC(=O)O)C(=O)N[C@@H](Cc2c[nH]c3ccccc23)C(=O)N[C@@H](Cc2c[nH]c3ccc(Cl)cc23)C(=O)N2C[C@H](O)C[C@H]2C(=O)N[C@@H](CCC(=O)O)C(=O)N[C@H](CC(C)C)C(=O)N[C@H]2CSCc3cccc(n3)CSC[C@@H](C(=O)NC3CCN(CC(=O)N[C@H](CCC(=O)NC[C@H](O)[C@@H](O)[C@H](O)[C@H](O)CO)C(N)=O)CC3)NC(=O)[C@H]([C@@H](C)CC)NC(=O)[C@H](CC(C)C)NC(=O)C3(CCN(C(=O)CN4CCN(CC(=O)O)CCN(CC(=O)O)CCN(CC(=O)O)CC4)CC3)NC2=O)CC1 [GIP-041, MeO36PEG-APAc-Asp-Trp-5Clw-Hyp-Glu-leu-[Cys(2Lut)-Apc(DOTA)-Leu-Ile-Cys]-APAc-glu(AGLU)-NH2]
> 8 pic50	–	W[Trp(5-Cl)][Hyp]E[dL]C[Thp]LIC-{dK(DOTA)-NH2} (linker 6-10 via 2Lut; not fully specified (N-terminus)) [HO-Succinyl-Trp-5Clw-Hyp-Glu-leu-[Cys(2Lut)-Thp-Leu-Ile-Cys]-lys(DOTA)-NH2]
> 8 pic50	–	{DOTA-dGlu(AGLU)-AEEA}-DW[Trp(5-Cl)][Pro(trans-4-NH2)]E[dL]C[Api]([Glutaryl-NH(1-deoxy-D-glucityl)])LIC-{APAc-dGlu(AGLU)-NH2} (linker 7-11 via 2Lut; reading uncertain)
> 8 pic50	–	{DOTA-Ttds}-DW[Trp(5-Cl)][Sar]E[dL]C[Aib]LI[Cysteamide] (linker (positions not given here) via mXylylene; not fully specified (bridges); printed as DOTA-Ttds-Asp-Trp-5Clw-Nmg-Glu-leu-[Cys(3MeBn)-Aib-Leu-Ile-AET]) [DOTA-Ttds-Asp-Trp-5Clw-Nmg-Glu-leu-[Cys(3MeBn)-Aib-Leu-Ile-AET]]
> 8 pic50	–	{DOTA-Ttds}-D[Trp(6-F)][Trp(5-Br)]PE[dL]C[Aib]LI[Cysteamide] (linker 7-11 via mXylylene) [DOTA-Ttds-Asp-6Fw-5Brw-Pro-Glu-leu-[Cys(3MeBn)-Aib-Leu-Ile-AET]]
> 8 pic50	–	Suc-W[Trp(5-Cl)][Hyp]E[dL]C[Thp]LIC-{Lys(DOTA)-NH2} (linker 6-10 via Pyridine(2,6-diCH2)) [HO-Succinyl-Trp-5Clw-Hyp-Glu-leu-[Cys(2Lut)-Thp-Leu-Ile-Cys]-Lys(DOTA)-NH2]
> 8 pic50	–	{DOTA-Ttds}-DW[Trp(5-Cl)][Pro(3S-OH)]E[dL]C[Aib]LI[Cysteamide] (linker 7-11 via mXylylene) [DOTA-Ttds-Asp-Trp-5Clw-H3p-Glu-leu-[Cys(3MeBn)-Aib-Leu-Ile-AET]]
> 8 pic50	–	{DOTA-Ttds}-DW[Trp(5-Cl)]PE[dL]C[αMeS]LI[Cysteamide] (linker (positions not given here) via mXylylene; not fully specified (bridges); printed as DOTA-Ttds-Asp-Trp-5Clw-Pro-Glu-leu-[Cys(3MeBn)-Ams-Leu-Ile-AET]) [DOTA-Ttds-Asp-Trp-5Clw-Pro-Glu-leu-[Cys(3MeBn)-Ams-Leu-Ile-AET]]
> 8 pic50	–	{DOTA-Ttds}-D[Trp(6-F)][Trp(5-Cl)]PE[dL]C[Aib]LI[Cysteamide] (linker 7-11 via mXylylene) [DOTA-Ttds-Asp-6Fw-5Clw-Pro-Glu-leu-[Cys(3MeBn)-Aib-Leu-Ile-AET]]
